Target: T1, Aβ42 (human, UniProt P05067 672-713)
T1 construct: range 672-713; In the Elecsys experiments it is the native Aβ42 of the plasma sample; also called Ab42; Abeta42
Test: SPR (Biacore 8K+), antibody captured, Aβ42 injected, 37° C., Langmuir 1:1 fit
Experimental: Measurements were performed using the BIAcore™ 8K+ instruments. Aβ-42 concentration series ranging from 1.2 nM to 900 nM were injected at […]. The association phase was monitored for 3 min, the dissociation phase between 5 min to 10 min at 37° C.
The measurements were performed using PBS-DT+, pH7.4 (10 mM phosphate buffer, 2.7 mM KCl, 137 mM NaCl. 5% DMSO, 0.05% Tween 20) as running buffer.
The kinetic rate constants and the dissociation equilibrium constants KD were calculated using a Langmuir 1:1 fit model according Scrubber Version 2.0.c.

T1 sequence (P05067 672-713 limits assumed, form in doubt): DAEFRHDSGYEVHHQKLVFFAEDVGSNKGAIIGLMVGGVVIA

B1: Mouse anti Aβ-42 antibody 3.2.52 (IgG2b), expressed in hybridoma (antibody)
heavy: EVQLQQSGPELVKLGASVRVSCRTSGFTITEYTMHWVKQSHGKSLEWIGGINPITGGSRNNLKFKDKATLTGDKSSSTVYMDLRSLTSEGSTVNYCVRGRTMGPLDYWGQGTTLTVSSAKTTPPSVYPLAPGCGDTTGSSVTLGCLVKGYFPESVTVTWNSGSLSSSVHTFPALLQSGLYTMSSSVTVPSSTWPSQTVTCSVAHPASSTTVDKKLEPSGPISTINPCPPCKECHKCPAPNLEGGPSVFIFPPNIKDVLMISLTPKVTCVVVDVSEDDPDVRISWFVNNVEVHTAQTQTHREDYNSTIRVVSALPIQHQDWMSGKEFKCKVNNKDLPSPIERTISKIKGLVRAPQVYILPPPAEQLSRKDVSLTCLVVGFNPGDISVEWTSNGHTEENYKDTAPVLDSDGSYFIYSKLDIKTSKWEKTDSFSCNVRHEGLKNYYLKKTISRSPGK
light: not shown
notes: Full-length mouse IgG2b; Biotinylated when used as capture antibody in Elecsys assays; also called M-3.2.52; clone 3.2.52
**Q.** Which results are given for B1?
**A.** Kd: 6.7 nM; MR (molar ratio): 0.7; koff: 0.0253 s⁻¹; kon: 3.8e+06 M⁻¹ s⁻¹; t/2 diss (complex half-life): < 1 min

— US20240352110A1 (ROCHE DIAGNOSTICS OPERATIONS, published 2024)
